B1: TPR t1 (parent)
chain: GACCAAUCUGCCCUCAGAGCUCGAGAACAUCUUCGGAUGCAGAGGAGGCAGGCUUCGGUGGCGCGAUAGCGCCAACGUCCUCAACCUCCAAUGCAUCCCACCACAUGAUGAUGCCUGAAGAGCCUUGGUUUUUUG

Variants of: B1
Test: polymerase ribozyme fitness, log enrichment relative to wild type (log ratio); higher = more active; in vitro selection for triplet polymerase activity
How it was run: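 PCR was used to build mutant libraries for each subunit of a heterodimeric triplet polymerase ribozyme, which were then transcribed. A single in vitro selection round, in triplicate, used a frozen incubation at −7 °C and recovered extended constructs by gel excision, streptavidin beads and RT-PCR. Fitness is the logarithm of genotype enrichment relative to wild-type enrichment, averaged over replicates with inverse-variance weights. The logarithm is base 2, and after Illumina sequencing only genotypes with ≥10 input reads and ≥1 read per output were kept.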

| Variant | polymerase ribozyme fitness (log ratio) |
| --- | --- |
| G52U C72A C85A U106A G110U | -3.08 |
| G51U G60U C79G | -1.64 |
| A50U U54C U106A G117A | -1.12 |
| G52U A84C G93C | -2.23 |
| A50U U55G G58A | -5.41 |
| G51A C64A U78C A84C G117C | -6.38 |
| G52C C94A | -0.653 |
| G51C U78C A121C G122U C124A | -4.73 |
| G52U C62G C89G U109C A111U | -6.22 |
| G51U G71A | -5.06 |
| G51U C104A U133G | -5.02 |
| G52A C94A | -1.72 |
| G51C G63U A84U U112G U132A | -5.83 |
| G51U C53A G60A | -5.54 |
| G52C A83C A118G U131A | -0.732 |
| G52C C56A G57A C89U A91C C94U | -3.35 |
| G51A A100U | -4.16 |
| G52A G61A G127U | -1.95 |
| G52U C72U U78C | -0.804 |
| G51C U130A | -3.62 |
| G51A U78A C88G A121U | -1.45 |
| G52C C88A | -0.833 |
| G52C U59C G60U A66G | -5.6 |
| G52C C53U G71U | -0.538 |

| Variant | polymerase ribozyme fitness (log ratio) |
| --- | --- |
| G52U A103U | -6.74 |
| G52A C64G C88G G120U | -6.36 |
| A50U U87G G113U | -4.19 |
| G51A G52A U54C | -4.49 |
| G51A U130A | -3.19 |
| G51C C56U C115U U131A | -4.93 |
| G51C C73G C114A | -6.6 |
| G51U G60U C79G C85A C114U G120U G127U | -4.96 |
| G51U U130A | -3.79 |
| G51C G110C | -6.54 |
| G51U G52A C79A | -5.44 |
| G52A U92G | -2.95 |
| G52U C64U | -0.768 |
| G51U C101A | -4.55 |
| G52C G69C G117C | -6.05 |
| G51A C53U C62G G69U C82U G120U | -6.98 |
| G52C U55C | -0.101 |
| G51U U55A C64U C114G C115U C123U | -7.28 |
| G52C C70U C72U G117U | -4.23 |
| G52A G63A C73U U81C C114A | -7.55 |
| G51A G69U C88U G93A U109G U133C | -4.55 |
| A50U G71C G117A | -3.1 |
| G51C G60C A75U | -2.9 |
| G51U C64G U112G | -6.95 |

| Variant | polymerase ribozyme fitness (log ratio) |
| --- | --- |
| A50U G93C | -1.95 |
| G52U C72A C86A G113A G122C | -4.85 |
| G51U G61U C80A G127U | -1.14 |
| G52A A74U C80U | -1.78 |
| G52A A118U | 0.938 |
| G52A G71C A95C G113C | -6.98 |
| G52A G57A G113A | -0.88 |
| G51A A83G G120U C123G G128U | -2.51 |
| G51A C56U G63C A84U C99U A121U | -6.23 |
| G51A G71U G77U | -3.39 |
| A50U U54A G63C U112A | -2.51 |
| G51C G61U | -5.29 |
| G52C C72U C73G | -1.01 |
| G52A G69C C104U G113C | -4.79 |
| G51A C124A | -1.48 |
| G51U G58C C86A C104U | -3.76 |
| G51U C56A C98U C99U C124A U131G | -6.41 |
| G52A A111C | 0.197 |
| G52C G122A | -1.3 |
| G51U C79G C94A C124A | -1.56 |
| G52A C104U G110C | -2.99 |
| G51C C101U | -3.94 |
| G52U C72G A121G | 1.49 |
| G52C G71U | -0.867 |

| Variant | polymerase ribozyme fitness (log ratio) |
| --- | --- |
| G51A G77C U116C A118C | -5.43 |
| G52C U67A C70A G117C | -6.05 |
| G51A C99U C124A | -5.8 |
| G52A G63U U129A | -3.94 |
| G51U C79G U87G | -1.09 |
| G51U C56U | -2.11 |
| G51U C56G | -5.36 |
| G51A C86U C94G G120C | -6.29 |
| A50U G61A U106A | -1.03 |
| G52A G58U C73G | -0.432 |
| G51U C73A U106A C124A U126A U129A U131A | -2.8 |
| G52A G77U G93A G122U | -2.45 |
| G52C C56U | -0.823 |
| G52C C56A | -0.559 |
| G51C G69U | -2.95 |
| G52A C53G U59A A119U | -4.71 |
| G52A G77U G117U | -4.34 |
| G52C G61A C72U | -0.0205 |
| G51C A91C U112A U131C | -6.14 |
| G52A C56U U59G C114U C124A G135C | -0.522 |
| G51A C56U | -0.934 |
| G51A C56G | -2.03 |
| G52A G120C | 0.847 |
| G51U G58C G113C | -5.43 |

| Variant | polymerase ribozyme fitness (log ratio) |
| --- | --- |
| G52U C56A | -1.92 |
| G51U G60A C123U | -1.47 |
| G51C G93C | -4.73 |
| G52A C70A U92A G93C A105U U112A C115A U130C | -6.48 |
| A50U G120A | -0.296 |
| G51U C72A | -2.55 |
| G51C G113C | -5.71 |
| A50U G61U U126G | -2.73 |
| G51C G60A | -3.46 |
| G52C U54G U87C A100U | -1.94 |
| G52A G61A | -0.531 |
| G51C C99U | -7.54 |
| A50U G69A C123G U131G | -4.01 |
| G52A G61A C79G | -0.673 |
| G51U G57A G65U A121U | -7.73 |
| G52A G122A | -0.494 |
| G52U C73U A83U G120A C124U | -0.229 |
| A50U G63C C86G U87A | -3.52 |
| G52C C53A C97U C101U | -1.86 |
| G51U U54G C62A G113U | -7.8 |
| G51C C80G | -1.85 |
| G51U C123U | -2.12 |
| G51U U54A C89U U129C | -2.82 |
| G52A C62A U87A | -3.07 |

| Variant | polymerase ribozyme fitness (log ratio) |
| --- | --- |
| G51A G93U C104U | -3.96 |
| G51A A95U | -3 |
| G52C G117A | -1.64 |
| G52A G57C C72U U116A U129C | -4.37 |
| G52U C64U U132A | -1.1 |
| G51U U109A G128U | -5.92 |
| G52A C114G | -3.02 |
| G51A A90G G113C | -5.54 |
| G52U C82G | -2.18 |
| G51A G71A G93A U129C | -5.9 |
| G51A C115G | -4.23 |
| A50U U81C C114A | -6.09 |
| G51U C101U G120U | -4.49 |
| G52C U78C G117U | -2.77 |
| A50U U78C | -2.19 |
| G52U C53U C56U G93U U109G | -6.55 |
| G51U G93C | -4.26 |
| A50U G63A | -1.47 |
| G52C G60A U81A A83U | -5.15 |
| G52U C53U | -1.04 |
| G51U C124U | -2.88 |
| G51U C124G | -1.68 |
| A50U G61C G122U | -3.51 |
| G51A U87C U131A | -2.41 |

| Variant | polymerase ribozyme fitness (log ratio) |
| --- | --- |
| G52U C56A C102A | -2.74 |
| G52A G71C G93C | -5.59 |
| G51A G52A G61U C101U | -3.85 |
| G51A G77C A95C | -4.86 |
| G52A C104U | 0.136 |
| G52A C88G | -0.655 |
| G52A U92A C98U A119U C124A | -3.81 |
| G52C C53G A68G G77A U81A C98U | -5.4 |
| G52C G63C C85U C104U | -3.03 |
| G52U C79G A83G A121G U132A | 0.919 |
| G51U C53U U112A A119G | -2.63 |
| G51A U54G C72G C80A C82G | -4.89 |
| A50U G128A | -3.35 |
| G52U A111U | -3.93 |
| G52U A111C | -2.18 |
| G52C G69A | -3.55 |
| G52C G69U | -0.241 |
| G51U C115U | -4.89 |
| G51U C72U U106A | -3.68 |
| G51U U54A C123G U129A | -2.43 |
| G52U C70G C72U | -3.48 |
| G51C C70G U109G | -7.25 |
| G52A A84U U131G | -0.974 |

— the RNAGym collection of RNA variant scans (doi:10.1073/pnas.2313332121)
